Assay results: US20230303667A1

B1: 2.10.1E06 (antibody, V domains shown)
VH: EVQLVESGGGLIQPGGSLRLSCTASGFTFSKFAMSWVRQAPGRGLEWISYISGGSKTKYYADSVRGRFTISRDNAKGSLFLQMNSLRAEDTAIYFCAKKGWQSTFLGMDYFYGMDVWGKGTTVTVSS
VL: EIVLTQSPGTLSLSPGERATLSCRASQSVTSNYLAWYQQKPGQAPRVLIYGASSRATGIPDRFSGSGSGTDFTLTISRLEPEDFAVYYCQQFGASPPYSFGQGTKVEIK
B2: 5.1.7D03 (antibody, V domains shown)
VH: EVQLVQSGGGLAQPGGSLRLSCAASGFTFRSYDMHWVRQVTGKGLEWVSAIGTAGDTYYTGSVKGRFTISRENDKSSLYLQMSSLRGEDTAVYYCARAAFGSHYFDYWGQGTLVTVSS
VL: EIVLTQSPGTLSLSPGERAALSCRASQSVSGNYFAWYQQKSGQAPRLLISAASSRATGVPDRFSASGSGTDFTLTISRLEPEDSAVYYCQQYGSSPLTFGQGTKVEIK
B3: 5.6.c2618 (antibody, V domains shown)
VH: QVQLVQSGAEVKKPGASVNLSCKGSGYSFRTYYIHWVRQAPGQGLEWMGIINSSGGGTTYAQKFQGRVTMTRDTSTSTVYMELRSLKYEDTAMYYCARDRFPTVSGEPFAMDVWGQGTTVTVSS
VL: EVVLTQSPVTLSLSPGERATLSCRASQSVSGYLAWYQQKPGQVPRLLIYDTSNRATGIPARFSGSGSGTDFTLTISTIEPEDFAVYYCQQRSKWGVTFGGGTKVDIK
B4: 9.6.1A09 (antibody, V domains shown)
VH: EVQLVESGGGLVQPGGSLRLSCAASGFTFRSYDMDWFRQSTGKGLEWVSAIGSAGDTYYTDSVKGRFTISRENGKNSLYLQMNSLRAGDTAVYYCARARFGDNVFDLWGRGTLVTVSS
VL: DIVMTQSPDSLAVSLGERASINCKSSQSVLSSSNTKNYLAWYQHKPGQPPKLLIYWASTRESGVPDRFSGSGSGTDFTLTISSLQPEDVAVYYCQQYYGAPYTFGQGTKVEIK
B5: 9.6.3A06 (antibody, V domains shown)
VH: EVQLLESGGGLVKPGGSLRLSCAASGFTFNEYMMNWVRQPPGKGLEWVSSISGTSTYINYADSVKGRFTISRDNAKNSLYLQMNSLRSDDTAMYYCARGSTGGYWGQGTLITVSS
VL: DIVMTQTPLSSAVTLGQPASISCRSSQRLVHSDGNTYLSWLHQRPGQPPRLLIYKVSLRFSGVPDRFSGSGAGTDFTLKISRVEAEDVGIYYCMQATQFPLTFGGGTKVEIK
B6: 5.1.13G03 (antibody, V domains shown)
VH: QVQLQESGPGLVKPSGTLSLTCAVSGGSISSTNWWSWVRQPPGKGLEWIGEIYHSGSTNYNPSLKSRVTISLDKSKDQFSLKLSSVTAADTAVYYCAYSNTWTGGWGQGTLVTVSS
VL: DIQMTQSPSSLSASVGDRVTITCRASQSISSYLNWYQQKPGKAPKVLIYSAFSLQNGVPSRFSGSGSGTDFTLTISSLQPEDFATYYCQQSYSTPRTFGQGTKVEIK

What follows are binders tested against Ebola Zaire (Kikwit strain) glycoprotein (Ebola Zaire (Kikwit strain)) (UniProt P87666) (assay: cell-based or functional assay).
Chain of Ebola Zaire (Kikwit strain) glycoprotein (Ebola Zaire (Kikwit strain)) (P87666 33-676 limits assumed): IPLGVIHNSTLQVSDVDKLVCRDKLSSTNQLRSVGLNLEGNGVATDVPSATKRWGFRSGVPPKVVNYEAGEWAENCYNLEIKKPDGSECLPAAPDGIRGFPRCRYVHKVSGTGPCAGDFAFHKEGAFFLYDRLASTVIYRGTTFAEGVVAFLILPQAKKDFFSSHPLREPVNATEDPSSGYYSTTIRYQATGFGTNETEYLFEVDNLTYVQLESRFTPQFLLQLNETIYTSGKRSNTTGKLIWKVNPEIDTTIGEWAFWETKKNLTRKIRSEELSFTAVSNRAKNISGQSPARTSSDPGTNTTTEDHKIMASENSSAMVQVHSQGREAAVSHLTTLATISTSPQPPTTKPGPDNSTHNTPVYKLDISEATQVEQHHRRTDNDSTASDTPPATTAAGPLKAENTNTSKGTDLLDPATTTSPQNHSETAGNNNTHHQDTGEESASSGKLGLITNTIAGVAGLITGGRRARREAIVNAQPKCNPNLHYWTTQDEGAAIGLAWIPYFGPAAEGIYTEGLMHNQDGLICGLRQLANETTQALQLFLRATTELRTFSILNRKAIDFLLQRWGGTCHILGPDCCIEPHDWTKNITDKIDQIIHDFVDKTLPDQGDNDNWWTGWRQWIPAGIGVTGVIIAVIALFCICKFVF

Point of comparison: B1, PRNT50 (ug/ml) for Ebola Zaire (Kikwit strain) 0.781 µg/mL. Against it:
- B2 — 2-fold higher, 1.57 µg/mL
- B3 — 130-fold lower, 0.0061 µg/mL
- B4 — the same, 0.781 µg/mL
- B5 — 16-fold lower, 0.0488 µg/mL
- B6 — 8-fold lower, 0.0978 µg/mL
